Source: US7994123B2, “Hybrid proteins with ErbB4 extracellular domain and neuregulin heparin-binding domain for targeting” (Wayne State University, priority 2004, dated 2011)
Where “and” joins values, the source holds several entries; their conditions need not be identical. Equal values may be shown once.

Columns and labels:
[1] = test system: erbB receptor phosphorylation (p185) in L6 cells; assay: L6 assay: block of NRG-induced erbB receptor phosphorylation (p185); format: cell-based; conditions: comparable amounts of antagonist with 50 pM NRG (IG-EGF form), 45 min
Description: (§1) 4. Cell culture: The L6 cells were cultured in DMEM supplemented with 10% fetal calf serum, 1 mM L-glutamine and 1000 U/ml penicillin/streptomycin at 37° C. in 10% CO2 incubator. The HEK293 cells were cultured in DMEM with 10% fetal calf serum, 1 mM L-glutamine, 2 mM sodium pyruvate, 0.1 mM non-essential amino acids, 1000 U/ml penicillin/streptomycin at 37° C. in 10% CO2 incubator. The selective antibiotics Geneticin 200 μg/ml (Gibco-Invitrogen) was added to the cell cultures of stably transfected HEK293 cells harboring the NRG antagonists. 5. Stable expression of NRG antagonists in HEK293 cells: HEK293 cells were cultured in […] flasks to 80% confluence and transfected with the four NRG antagonist constructs using lipofectamine 2000 (Invitrogen Life Science) as instructed. The antibiotic Geneticin was then added at a concentration of 400 μg/ml to the transfected HEK293 cells to select the positive antagonist transfected cells. After three weeks of Geneticin selection, the transfected HEK293 cells were diluted and plated in 96 well plates to yield single positive clones. The single clones that expressed the highest levels of antagonists (confirmed by western blot using HA antibody) were then maintained in culture media with 200 μg/ml Geneticin. Optimem I (Gibco-Invitrogen) was applied to the stably transfected NRG antagonist cell lines at 37° C. in 10% CO2 incubator for 2 days. The conditioned Optimem I media was then used in the following experiments. 6. Heparin column binding: The conditioned media containing the four NRG antagonists was passed through the heparin column to allow binding to heparin. The excessive unbound antagonist proteins were washed off by 1×PBS twice. The antagonist proteins were then eluted by increasing concentration of NaCl (0.25, 0.3, 0.4, 0.5, 0.6 and 1M). The flow through solution from each step was examined by anti-HA western blots, as described later, to determine heparin binding ability of the antagonists. 7. Purification and quantitation of recombinant proteins: The NRG antagonists were purified by anti-HA affinity matrix (3F10) (rat mAb) according to manufacturer's instructions. Briefly, the column was equilibrated with buffer containing 20 mM Tris pH 7.5, 0.1 M NaCl, 0.1 M EDTA, and each antagonist in conditioned medium was applied individually to the anti-HA affinity matrix. Excess unbound antagonist proteins were washed with 20 volume of washing buffer (20 mM Tris pH 7.5, 0.1 M NaCl, 0.1 M EDTA and 0.05% Tween 20). The bound NRG antagonists were eluted with 0.1 M glycine (pH 2). The purified recombinant protein was then quantified using a BioRad Protein Assay kit (Bio-Rad, Hercules, Calif.) 8. Silver stain: Both the conditioned media and the purified NRG antagonists were resolved on 7.5% reducing SDS-polyacrylamide gels. The gel was fixed with 30% ethanol and 10% acetic acid for 30 min. 10% ethanol and ultrapure water were used subsequently to wash the gel before staining with SilverSNAP stain solution with enhancer for 30 min. The gel was then developed using SilverSNAP developer solution with enhancer. 5% acetic acid was used to stop the reaction when the desired band intensity was reached. The gel was dried on filter paper using a vacuum gel dyer. 9. […] Positive control L6 cells were treated with 50 pM NRG alone. L6 cell lysates were prepared and run on 5% SDS-PAGE gel. Western blots of erbB receptor phosphorylation were performed using 4G10 antibody. 10. Western blot: Western blots were performed on both conditioned NRG antagonist media and the antagonist-treated L6 cells. The antagonist proteins and the L6 cells were solubilized in SDS sample buffer and boiled for 5 min as described above (see also Li et al., supra). The NRG antagonists run on 7.5% SDS-PAGE gel were detected by anti-HA mAb HA.11. Phosphotyrosine mAb 4G10 was used to detect phosphorylated erbB receptor (p185) in L6 cell western blot analysis following resolution on overrun 5% reducing SDS-polyacrylamide gels. […]

[2] = Heparin column binding; conditions: for binding to heparin column: conditioned media, anti-HA western blot of flow through and elution; for NaCl concentration needed to elute from heparin column: elution with increasing NaCl (0.25-1 M)
Description: as §1

Molecule	effect on NRG-induced p185 erbB receptor phosphorylation [1]	binding to heparin column [2]	NaCl concentration needed to elute from heparin column [2]
B4-HA: extracellular domain of erbB4 expressed alone without the HBD, HA tag (control) (protein, left off: small tags and cut ends) VCAGTENKLSSLSDLEQQYRALRKYYENCEVVMGNLEITSIEHNRDLSFLRSVREVTGYVLVALNQFRYLPLENLRIIRGTKLYEDRYALAIFLNYRKDGNFGLQELGLKNLTEILNGGVYVDQNKFLCYADTIHWQDIVRNPWPSNLTLVSTNGSSGCGRCHKSCTGRCWGPTENHCQTLTRTVCAEQCDGRCYGPYVSDCCHRECAGGCSGPKDTDCFACMNFNDSGACVTQCPQTFVYNPTTFQLEHNFNAKYTYGAFCVKKCPHNFVVDSSSCVRACPSSKMEVEENGIKMCKPCTDICPKACDGIGTGSLMSAQTVDSSNIDKFINCTKINGNLIFLVTGIHGDPYNAIEAIDPEKLNVFRTVREITGFLNIQSWPPNMTDFSVFSNLVTIGGRVLYSGLSLLILKQQGITSLQFQSLKEISAGNIYITDNSNLCYYHTINWTTLFSTINQRIVIRDNRKAENCTAEGMVCNHLCSSDGCWGPGPDQCLSCRRFSRGRICIESCNLYDGEFREFENGSICVECDPQCEKMEDGLLTCHGPGPDNCTKCSHFKDGPNCVEKCPDGLQGANSFIFKYADPDRECHPCHPNCTQGCNGPTSHDCIYYPWTGHSTLPQHAKN	little effect	did not	–
HBD-B4-HA: fusion polypeptide: NRG heparin-binding domain N-terminal to erbB4 extracellular domain, no spacer, HA tag (protein, left off: small tags and cut ends) SAAGSQSPALPPRLKEMKSQESAAGSKLVLRCETSSEYSSLRFKWFKNGNELNRKNKPQNIKIQKKPGKSELRINKASLADSGEYMCKVISKLGNDSASANITIVEVCAGTENKLSSLSDLEQQYRALRKYYENCEVVMGNLEITSIEHNRDLSFLRSVREVTGYVLVALNQFRYLPLENLRIIRGTKLYEDRYALAIFLNYRKDGNFGLQELGLKNLTEILNGGVYVDQNKFLCYADTIHWQDIVRNPWPSNLTLVSTNGSSGCGRCHKSCTGRCWGPTENHCQTLTRTVCAEQCDGRCYGPYVSDCCHRECAGGCSGPKDTDCFACMNFNDSGACVTQCPQTFVYNPTTFQLEHNFNAKYTYGAFCVKKCPHNFVVDSSSCVRACPSSKMEVEENGIKMCKPCTDICPKACDGIGTGSLMSAQTVDSSNIDKFINCTKINGNLIFLVTGIHGDPYNAIEAIDPEKLNVFRTVREITGFLNIQSWPPNMTDFSVFSNLVTIGGRVLYSGLSLLILKQQGITSLQFQSLKEISAGNIYITDNSNLCYYHTINWTTLFSTINQRIVIRDNRKAENCTAEGMVCNHLCSSDGCWGPGPDQCLSCRRFSRGRICIESCNLYDGEFREFENGSICVECDPQCEKMEDGLLTCHGPGPDNCTKCSHFKDGPNCVEKCPDGLQGANSFIFKYADPDRECHPCHPNCTQGCNGPTSHDCIYYPWTGHSTLPQHAKN	little effect	did not	–
HBD-S-B4-HA: fusion polypeptide: NRG heparin-binding domain, glycosylated spacer, erbB4 extracellular domain, C-terminal HA tag (protein, left off: small tags and cut ends) QSGYKKKERGSGKKPESAAGSQSPALPPRLKEMKSQESAAGSKLVLRCETSSEYSSLRFKWFKPNGNELNRKNKQNIKIQKKPGKSELRINKASLADSGEYMCKVISKLGNDSASANITIVESNEIITGMPASTEGAYVSSESPIRISVSTEGANTSSSTSTSTTGTSGTQSVCAGTENKLSSLSDLEQQYRALRKYYENCEVVMGNLEITSIEHNRDLSFLRSVREVTGYVLVALNQFRYLPLENLRIIRGTKLYEDRYALAIFLNYRKDGNFGLQELGLKNLTEILNGGVYVDQNKFLCYADTIHWQDIVRNPWPSNLTLVSTNGSSGCGRCHKSCTGRCWGPTENHCQTLTRTVCAEQCDGRCYGPYVSDCCHRECAGGCSGPKDTDCFACMNFNDSGACVTQCPQTFVYNPTTFQLEHNFNAKYTYGAFCVKKCPHNFVVDSSSCVRACPSSKMEVEENGIKMCKPCTDICPKACDGIGTGSLMSAQTVDSSNIDKFINCTKINGNLIFLVTGIHGDPYNAIEAIDPEKLNVFRTVREITGFLNIQSWPPNMTDFSVFSNLVTIGGRVLYSGLSLLILKQQGITSLQFQSLKEISAGNIYITDNSNLCYYHTINWTTLFSTINQRIVIRDNRKAENCTAEGMVCNHLCSSDGCWGPGPDQCLSCRRFSRGRICIESCNLYDGEFREFENGSICVECDPQCEKMEDGLLTCHGPGPDNCTKCSHFKDGPNCVEKCPDGLQGANSFIFKYADPDRECHPCHPNCTQGCNGPTSHDCIYYPWTGHSTLPQHAKN	dramatically reduced erbB receptor activation	bound the heparin column	> 1 M and 1 M
B4-HBD-HA: fusion polypeptide: erbB4 extracellular domain with NRG heparin-binding domain C-terminal, HA tag (protein, left off: small tags and cut ends) VCAGTENKLSSLSDLEQQYRALRKYYENCEVVMGNLEITSIEHNRDLSFLRSVREVTGYVLVALNQFRYLPLENLRIIRGTKLYEDRYALAIFLNYRKDGNFGLQELGLKNLTEILNGGVYVDQNKFLCYADTIHWQDIVRNPWPSNLTLVSTNGSSGCGRCHKSCTGRCWGPTENHCQTLTRTVCAEQCDGRCYGPYVSDCCHRECAGGCSGPKDTDCFACMNFNDSGACVTQCPQTFVYNPTTFQLEHNFNAKYTYGAFCVKKCPHNFVVDSSSCVRACPSSKMEVEENGIKMCKPCTDICPKACDGIGTGSLMSAQTVDSSNIDKFINCTKINGNLIFLVTGIHGDPYNAIEAIDPEKLNVFRTVREITGFLNIQSWPPNMTDFSVFSNLVTIGGRVLYSGLSLLILKQQGITSLQFQSLKEISAGNIYITDNSNLCYYHTINWTTLFSTINQRIVIRDNRKAENCTAEGMVCNHLCSSDGCWGPGPDQCLSCRRFSRGRICIESCNLYDGEFREFENGSICVECDPQCEKMEDGLLTCHGPGPDNCTKCSHFKDGPNCVEKCPDGLQGANSFIFKYADPDRECHPCHPNCTQGCNGPTSHDCIYYPWTGHSTLPQHAKNSAAGSQSPALPPRLKEMKSQESAAGSKLVLRCETSSEYSSLRFKWFKNGNELNRKNKPQNIKIQKKPGKSELRINKASLADSGEYMCKVISKLGNDSASANITIVE	dramatically reduced erbB receptor activation	bound the heparin column	0.4 to 0.5 M
